Laboratory results reported in patent publication US20170260530, “APTAMERS FOR PURIFYING AND QUANTIFYING GELSOLIN AND ITS VARIANTS” (Council of Scientific & Industrial Research, published 2017).

Experiments:
Gelsolin (GSN) [1] = biological target: T1, Gelsolin (GSN) (Homo sapiens, UniProt P06396 SEQ:28-782); assay: microtiter (ELISA-type) assay, immobilized aptamer, 100 nM gelsolin; selection buffer with 2 mM CaCl2, 5 mM MgCl2; RT; conditions: tags: tagless; expressed from pET303/CT-His vector in E. coli BL21(DE3); label: biotin
T1 sequence (P06396 28-782): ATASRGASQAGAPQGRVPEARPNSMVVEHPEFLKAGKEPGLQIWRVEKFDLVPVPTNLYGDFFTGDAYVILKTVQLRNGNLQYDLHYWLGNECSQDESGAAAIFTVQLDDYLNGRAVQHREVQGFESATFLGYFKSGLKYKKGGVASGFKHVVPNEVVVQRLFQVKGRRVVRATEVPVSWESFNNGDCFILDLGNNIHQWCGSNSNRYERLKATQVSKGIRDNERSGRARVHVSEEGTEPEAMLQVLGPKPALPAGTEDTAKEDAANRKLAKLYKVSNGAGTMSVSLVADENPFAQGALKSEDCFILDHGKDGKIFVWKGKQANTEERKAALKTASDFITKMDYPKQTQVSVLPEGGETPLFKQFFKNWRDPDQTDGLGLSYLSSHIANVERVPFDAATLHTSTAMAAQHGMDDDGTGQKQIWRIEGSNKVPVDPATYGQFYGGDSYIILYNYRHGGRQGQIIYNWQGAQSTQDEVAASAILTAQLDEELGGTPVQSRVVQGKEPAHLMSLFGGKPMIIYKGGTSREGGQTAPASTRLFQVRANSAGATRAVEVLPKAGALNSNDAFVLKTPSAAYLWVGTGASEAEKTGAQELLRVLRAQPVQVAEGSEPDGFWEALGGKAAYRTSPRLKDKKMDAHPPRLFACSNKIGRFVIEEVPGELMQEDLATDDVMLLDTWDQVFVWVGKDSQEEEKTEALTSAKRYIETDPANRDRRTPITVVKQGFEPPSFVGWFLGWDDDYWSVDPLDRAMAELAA

Gelsolin (GSN) [2] = biological target: T1, Gelsolin (GSN); assay: microtiter (ELISA-type) assay, immobilized aptamer 1.56-100 nM, 100 nM gelsolin; 25 mM Tris pH 8, 150 mM NaCl, 2 mM CaCl2, 5 mM MgCl2, 10 mM KCl; RT; conditions: tags: tagless; expressed from pET303/CT-His vector in E. coli BL21(DE3); label: biotin

| Binder | Kd (Gelsolin (GSN) [1]) | Kd (Gelsolin (GSN) [2]) |
| --- | --- | --- |
| L26F (ssDNA) DNA: TAGGGAAGAGAAGGACATATGATGGGGCACTGGAGGGTGGGGGAGCGGGGGCGGTTGACTAGTACATGACCACTTGA | 15.3 nM | – |
| L24F (ssDNA) DNA: TAGGGAAGAGAAGGACATATGATCGGGGGGCGGGTATTGGGGGCCGGGGGGATTGACTAGTACATGACCACTTGA | 15.7 nM | – |
| L16F (ssDNA) DNA: TAGGGAAGAGAAGGACATATGATAGGGGGATAGGAGGGGGTGGGATTGGGGGATTGACTAGTACATGACCACTTGA | 12.7 nM | – |
| 10.10R (ssDNA) DNA: TCAAGTGGTCATGTACTAGTCAAGCACTTTCGCTGCTCGCTGGCGCCGCGCCCATCATATGTCCTTCTCTTCCCTA | – | 7.2 nM |
